Results from the supplement of paper PMC10567573.

B1: TRIM39 (parent)
chain: CKACITRWWEDLERDFPCPVCRKT

Variants of: B1
Test: protein stability index of a GFP-peptide fusion (GPS, HEK-293T) (PSI 1-6); higher = more stable
Details: c terminus: a fixed tail appended
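Also: lentivirally expressed fusions sorted by FACS into six bins by GFP to DsRed ratio, PSI derived from sequencing read proportions per bin multiplied by bin number.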

In order of rising protein stability index:
1. CKAIITRWWEDLERDFPCPVCRKT [C4I]  1.59
2. CKAYITRWWEDLERDFPCPVCRKT [C4Y]  1.61
3. CKALITRWWEDLERDFPCPVCRKT [C4L]  1.63
4. CKAGITRWWEDLERDFPCPVCRKT [C4G]  1.65
5. CKAAITRWWEDLERDFPCPVCRKT [C4A]  1.72
6. CKAWITRWWEDLERDFPCPVCRKT [C4W]  1.75
7. CKADITRWWEDLERDFPCPVCRKT [C4D]  1.75
8. CKAEITRWWEDLERDFPCPVCRKT [C4E]  1.88
9. CKAMITRWWEDLERDFPCPVCRKT [C4M]  1.9
10. CKAKITRWWEDLERDFPCPVCRKT [C4K]  2.05
11. CKASITRWWEDLERDFPCPVCRKT [C4S]  2.07
12. CKAPITRWWEDLERDFPCPVCRKT [C4P]  2.1
13. CKARITRWWEDLERDFPCPVCRKT [C4R]  2.18
14. CKAVITRWWEDLERDFPCPVCRKT [C4V]  2.19
15. CKATITRWWEDLERDFPCPVCRKT [C4T]  2.24
16. CKANITRWWEDLERDFPCPVCRKT [C4N]  2.35
17. CKAQITRWWEDLERDFPCPVCRKT [C4Q]  2.41
18. CKAFITRWWEDLERDFPCPVCRKT [C4F]  2.45
19. CKACITIWWEDLERDFPCPVCRKT [R7I]  2.96
20. CKAHITRWWEDLERDFPCPVCRKT [C4H]  3.14
21. CKACITVWWEDLERDFPCPVCRKT [R7V]  3.28
22. CKACVTRWWEDLERDFPCPVCRKT [I5V]  3.35
23. CKACITRWWFDLERDFPCPVCRKT [E10F]  3.51
24. CKACITLWWEDLERDFPCPVCRKT [R7L]  3.58
25. CKACITRWWCDLERDFPCPVCRKT [E10C]  3.64
26. CKACITRWWIDLERDFPCPVCRKT [E10I]  3.65
27. CKACITMWWEDLERDFPCPVCRKT [R7M]  3.72
28. CKACITEWWEDLERDFPCPVCRKT [R7E]  3.73
29. CKACITKWWEDLERDFPCPVCRKT [R7K]  3.73
30. CKACITRWWHDLERDFPCPVCRKT [E10H]  3.77
31. CKACITFWWEDLERDFPCPVCRKT [R7F]  3.79
32. CKACITCWWEDLERDFPCPVCRKT [R7C]  3.8
33. CKACGTRWWEDLERDFPCPVCRKT [I5G]  3.86
34. CKACPTRWWEDLERDFPCPVCRKT [I5P]  3.86
35. CKACITRWLEDLERDFPCPVCRKT [W9L]  3.87
36. CKACKTRWWEDLERDFPCPVCRKT [I5K]  3.88
37. CKACITNWWEDLERDFPCPVCRKT [R7N]  3.89
38. CKACRTRWWEDLERDFPCPVCRKT [I5R]  3.93
39. CKACITPWWEDLERDFPCPVCRKT [R7P]  3.93
40. CKACITQWWEDLERDFPCPVCRKT [R7Q]  3.93
41. CKACITRWWGDLERDFPCPVCRKT [E10G]  3.94
42. CKACITWWWEDLERDFPCPVCRKT [R7W]  3.97
43. CKACITSWWEDLERDFPCPVCRKT [R7S]  3.98
44. CKACTTRWWEDLERDFPCPVCRKT [I5T]  3.99
45. CKACWTRWWEDLERDFPCPVCRKT [I5W]  3.99
46. CKACITDWWEDLERDFPCPVCRKT [R7D]  4
47. CKACITRWFEDLERDFPCPVCRKT [W9F]  4.07
48. CKACITTWWEDLERDFPCPVCRKT [R7T]  4.07
49. CKACITRAWEDLERDFPCPVCRKT [W8A]  4.07
50. CKACITGWWEDLERDFPCPVCRKT [R7G]  4.08
51. CKACITAWWEDLERDFPCPVCRKT [R7A]  4.08
52. CKACITRWWADLERDFPCPVCRKT [E10A]  4.08
53. CKACITRTWEDLERDFPCPVCRKT [W8T]  4.09
54. CKACITRWMEDLERDFPCPVCRKT [W9M]  4.11
55. CKACITRWWDDLERDFPCPVCRKT [E10D]  4.11
56. CKACNTRWWEDLERDFPCPVCRKT [I5N]  4.12
57. CKACITRCWEDLERDFPCPVCRKT [W8C]  4.15
58. CKACITRFWEDLERDFPCPVCRKT [W8F]  4.17
59. CKACITRLWEDLERDFPCPVCRKT [W8L]  4.19
60. CKACFTRWWEDLERDFPCPVCRKT [I5F]  4.22
61. CKACMTRWWEDLERDFPCPVCRKT [I5M]  4.22
62. CKACSTRWWEDLERDFPCPVCRKT [I5S]  4.22
63. CKACITRYWEDLERDFPCPVCRKT [W8Y]  4.22
64. CKACATRWWEDLERDFPCPVCRKT [I5A]  4.25
65. CKACLTRWWEDLERDFPCPVCRKT [I5L]  4.25
66. CKACITRIWEDLERDFPCPVCRKT [W8I]  4.26
67. CKACITRWPEDLERDFPCPVCRKT [W9P]  4.3
68. CKACITRWVEDLERDFPCPVCRKT [W9V]  4.31
69. CKACQTRWWEDLERDFPCPVCRKT [I5Q]  4.31
70. CKACDTRWWEDLERDFPCPVCRKT [I5D]  4.36
71. CKACYTRWWEDLERDFPCPVCRKT [I5Y]  4.39
72. CKACITRDWEDLERDFPCPVCRKT [W8D]  4.42
73. CKACITRWREDLERDFPCPVCRKT [W9R]  4.47
74. CKACHTRWWEDLERDFPCPVCRKT [I5H]  4.49
75. CKACITRWCEDLERDFPCPVCRKT [W9C]  4.53
76. CKACITRWGEDLERDFPCPVCRKT [W9G]  4.55
77. CKACETRWWEDLERDFPCPVCRKT [I5E]  4.6
78. CKACITRKWEDLERDFPCPVCRKT [W8K]  4.6
79. CKACITRMWEDLERDFPCPVCRKT [W8M]  4.62
80. CKACITRRWEDLERDFPCPVCRKT [W8R]  4.62
81. CKACCTRWWEDLERDFPCPVCRKT [I5C]  4.63
82. CKACITRHWEDLERDFPCPVCRKT [W8H]  4.66
83. CKACITRWQEDLERDFPCPVCRKT [W9Q]  4.69
84. CKACITREWEDLERDFPCPVCRKT [W8E]  4.73
85. CKACITRVWEDLERDFPCPVCRKT [W8V]  4.73
86. CKACITRGWEDLERDFPCPVCRKT [W8G]  4.8
87. CKACITRQWEDLERDFPCPVCRKT [W8Q]  4.83
88. CKACITYWWEDLERDFPCPVCRKT [R7Y]  4.85
89. CKACITRWKEDLERDFPCPVCRKT [W9K]  4.86
90. CKACITRSWEDLERDFPCPVCRKT [W8S]  4.92
91. CKACITHWWEDLERDFPCPVCRKT [R7H]  5.06
92. CKACITRPWEDLERDFPCPVCRKT [W8P]  5.08
93. CKACITRNWEDLERDFPCPVCRKT [W8N]  5.12
94. CKACITRWHEDLERDFPCPVCRKT [W9H]  5.16
